Patent US20090068207A1, “Compositions Containing Beta 2-Glycoprotein I-Derived Peptides for the Prevention and/or Treatment of Vascular Disease” (Vascular Biogenics Ltd., priority 2005, published 2009)

What was measured:
lymph node cells = experiment: Lymph node cell proliferation (stimulation index) to oxLDL after oral administration; assay type: in vivo, mice; conditions: oral, 3 doses of 100 μg; LDL-RD mice immunized with OxLDL; OxLDL challenge; mean ± S.E.
Description: Proliferation was measured by the incorporation of [^3H] thymidine into DNA during the final 12 h of incubation. The results were computed as stimulation index: the ratio of the mean cpm of the antigen to the mean background cpm obtained in the absence of the antigen.
[…] Three days after the final administration of peptides, the mice were immunized with OxLDL in incomplete Freund's adjuvant, as described in the Examples above, and lymph node cells assessed for antigen (OxLDL) stimulation of proliferation 10 days later. Proliferation was assessed by incorporation of thymidine, expressed as the Stimulation Index, as described.

[1] = system: aorta tissue from ApoE-KO mice; experiment: RT-PCR analysis of cytokine expression in aorta; assay type: in vivo; conditions: oral 100 μg/mouse, 5 times every other day; male ApoE-KO mice
Description: RT-PCR analysis of cytokine expression: 7-9 week old male ApoE-KO mice were tolerized by oral administration of β2GPI in 5 feedings, every other day, of human β2GPI (100 μg/mouse) or PBS, as control, by gavage, as detailed hereinabove. Three days following the oral administration of β2GPI, the mice were sacrificed, aortas collected and processed for RT-PCR analysis of the expression of anti-inflammatory Th2 type cytokine IL-10 and the proinflammatory Th1-type cytokine IFN-γ. The RT-PCR analysis was performed according to the protocol as described in detail by Colle et al (Journal of Immunol Methods 1997; 175-184). Briefly, RNA was extracted from the aortal tissue and reverse transcribed according to well-known, standard protocols, and the transcription products subjected to PCR amplification using the following primers: IL-10-forward primer 5′ […] 3′ (SEQ ID NO: 1), located at nucleotide positions 256-278 of IL-10 (GenBank Accession No. NM 010548 (SEQ ID NO: 2)) and reverse primer 5′[…] 3′ (SEQ ID NO: 3), located at nucleotide positions 532-556 of IL-10 (GenBank Accession No. NM 010548 (SEQ ID NO: 2)); IFN-γ-forward primer 5′ […] 3′ (SEQ ID NO: 4), located at nucleotide positions 372-397 of IFN-γ (GenBank Accession No. NM 008337 (SEQ ID NO: 5)), reverse primer 5′ […] 3′ (SEQ ID NO: 6), located at nucleotide positions 804-827 of IFN-γ (GenBank Accession No. NM 008337 (SEQ ID NO: 5)); and β-actin-forward primer 5′ […] 3′ (SEQ ID NO: 7), located at nucleotide positions 230-252 of β-actin (GenBank Accession No. NM 007393 (SEQ ID NO: 8)), and reverse primer 5′ […] 3′ (SEQ ID NO: 9), located at nucleotide positions […] of β-actin (GenBank Accession No. NM 007393 (SEQ ID NO: 8)). The resultant amplified IL-10, IFN-γ and β-actin transcripts were separated by electrophoresis on an agarose gel, and visualized by ehtidium bromide staining.
Male ApoE-KO mice 7-9 weeks of age were treated by oral administration of human β2GPI (100 μg/mouse) or PBS, as control, by gavage, as detailed hereinabove, 5 times, on every other day. […]

LDL-RD mice = experiment: Aortic sinus lesion area after intraperitoneal immunization with incomplete Freund's adjuvant; assay type: in vivo; conditions: End, intraperitoneal with incomplete Freund's adjuvant, head 100 μg, mean ± S.E
Description: Intraperitoneal immunization with human β2GPI-derived peptides: human β2GPI-derived peptides were dissolved in PBS and mixed with equal volumes of Freund's incomplete adjuvant. […] One week following the last immunization, the diet was switched from chow to atherogenic “Western” diet for five weeks, and then the mice were sacrificed.
Assessment of Atherosclerosis: Quantification of atherosclerotic fatty streak lesions was done by calculating the lesion size in the aortic sinus as previously described (16) and by calculating the lesion size in the aorta. Briefly, after perfusion with saline Tris EDTA, the heart and the aorta were removed from the animals and the peripheral fat cleaned carefully. The upper section of the heart was embedded in OCT medium (10.24% w/w polyvinyl alcohol; 4.26% w/w polyethylene glycol; 85.50% w/w nonreactive ingredients) and frozen. Every other section (10 μm thick) throughout the aortic sinus (400 μm) was taken for analysis. The distal portion of the aortic sinus was recognized by the three valve cusps that are the junctions of the aorta to the heart. […] Lesion areas per section were scored on a grid (17) by an observer counting unidentified, numbered specimens. The aorta was dissected from the heart and surrounding adventitious tissue was removed. Fixation of the aorta and Sudan staining of the vessels were performed as previously described (21). […]

B1: Human β2 GPI: human beta2-glycoprotein I (SEQ ID NO: 10) purified from serum (protein)
chain: MISPVLILFSSFLCHVAIAGRTCPKPDDLPFSTVVPLKTFYEPGEEITYSCKPGYVSRGGMRKFICPLTGLWPINTLKCTPRVCPFAGILENGAVRYTTFEYPNTISFSCNTGFYLNGADSAKCTEEGKWSPELPVCAPIICPPPSIPTFATLRVYKPSAGNNSLYRDTAVFECLPQHAMFGNDTITCTTHGNWTKLPECREVKCPFPSRPDNGFVNYPAKPTLYYKDKATFGCHDGYSLDGPEEIECTKLGNWSAMPSCKASCKLPVKKATVVYQGERVKIQEKFKNGMLHGDKVSFFCKNKEKKCSYTEDAQCIDGTIEVPKCFKEHSSLAFWKTDASDVKPC
Lymph node cells
  Stimulation index: 38 ± 12
[1]
  expression of IFN-γ in aorta (RT-PCR): inhibition of expression
  expression of IL-10 in aorta (RT-PCR): induction of expression
  tissue levels of β-actin gene transcripts (RT-PCR): without any influence
LDL-RD mice
  Aortic sinus lesion (μm^2): 36782 ± 5962 μm^2
